The record followed here is patent CN106749645A.

The target of the assay is HCV包膜糖蛋白. Briefly: cell-based or functional assay.

B1: 全人源抗HCV中和抗体TRN1002 (antibody)
heavy: QVQLVQSGAEVKKPGSSVRVSCKASGGTLGSFAGSWVRQAPGQGLEWIGGIIPMFRRTNYAQKFQGRVTITADESTGTTYLELSSLRSDDTAIYFCAREIPGYCTGGRCFGYFDYWGQGTLVTVSS
light: EIVLTQSPGTLSLSPGESATLSCRASQHVNSNFLAWYQQKRGQTPRLLIYAASSRATGIPDRFSGSGSGTDFTLTISRLEPEDFAVYYCQQYGTSLTFGQGTKVEIK
Take B1: the Luciferase活性 (荧光值), HCVpp感染Huh7细胞 is 100 %.
